{"source": "patent US9526786B2", "about": "“Thermostabilization of proteins” (The Trustee of Columbia University in the City of New York, priority 2007, dated 2016)", "key": {"[1]": {"test_system": "cocaine-induced lethality", "experiment": "In vivo duration of protection against cocaine-induced lethality", "set-up": "species or system NIH-Swiss mice", "conditions": "1 mg i.v.; cocaine 180 mg/kg i.p.", "protocol": "In vivo protection against cocaine lethality. Male NIH-Swiss mice (25-32 g) were obtained from Harlan Inc. (Indianapolis, Ind.) and were housed in groups of 6 mice per cage. All mice were allowed ad libitum access to food and water, and were maintained on a 12-h light-dark cycle with lights on at 06.30 AM in a room kept at a temperature of 21-22° C. Experiments were performed in accordance with the Guide for the Care and Use of Laboratory Animals as adopted and promulgated by the National Institutes of Health. The experimental protocols were approved by the University Committee on the Use and Care of Animals at the University of Michigan.\nCocaine-induced toxicity was characterized by the occurrence of lethality, as defined by the cessation of observed movement and respiration. Mice were placed individually in Plexiglas observation chambers (16×28×20 cm high) to be habituated for 15 min before drug administration. Following intra-peritoneal (i.p.) cocaine administration, the mouse was immediately placed individually in the same chamber for observation. The presence or absence of lethality was recorded for 60 min following cocaine administration. The mouse was placed in a small restraint chamber (Outer tube diameter: 30 mm; Inner tube diameter: 24 mm) that left the tail exposed. The tail was cleansed with an alcohol wipe and a 30G1/2 precision glide needle (Fisher Scientific, Pittsburgh, Pa.) was inserted into one of the side veins for infusion. The i.v. injection volume of CocE or CocE mutant was 0.2 mL per mouse. Sterile gauze and pressure were applied to the injection site to staunch the bleeding.\nLethality was monitored following injection at 1, 5, 10, or 30 min, or 1, 2, 3, 4, 5 hours after enzyme administration. Each treatment used 8 mice to assess the percent of lethality (i.e., protection) in mice pretreated with a single dose of an esterase at a single time point.\nThese values were used to compare the degree of rightward shifts of cocaine's dose-response curve in the absence or presence of the enzyme pretreatment. In the time course study, a time point for duration of protection (i.e., 50% of lethality) was estimated by using each time course curve crossing 50% occurrence of lethality.\nEvaluation of in vivo half life. CocE is administered IV to the tail vein in a volume of 0.2 ml. Animals are challenged with 180 mg/kg cocaine delivered intraperitoneally at a given time after CocE administration."}, "[2]": {"protocol": "Analysis of CocE action on cocaine cleavage is performed by utilizing the spectroscopic properties of cocaine, which maximally absorbs light at a 240 nm wavelength. CocE activity is measured by monitoring for a decrease in signal at A240, using various concentrations of cocaine, and determining the initial rate of the decrease. From these values the Vmax of the enzyme can be determined. By pre-incubating the enzyme at 37° C. for various times before monitoring for activity, the half life of CocE at 37° C. can be calculated.\nThe initial rates (of decay) were determined by following the change in the intrinsic absorbance of cocaine at 240 nm (6700 M^1 cm^1)(Xie et al., 1999) using a SpectraMax Plus 384 UV plate reader (Molecular Devices, Sunnyvale, Calif.) using SOFTmax Pro software (Version 3.1.2). The reaction was initiated by adding 100 μL of a 2× enzyme solution (100 mM phosphate buffer, pH 7.4 and 300 mM NaCl) to 100 μL of a 2× cocaine solution (50 μg/mL enzyme, 100 mM Phosphate Buffer, pH 7.4 and 300 mM NaCl). All assays were performed with 100 μM DTT unless indicated otherwise. […] For stability measurements, wild type and mutant enzymes were diluted to 2× concentration and incubated at 37° C. for the times indicated. At the end of each time point, an aliquot was removed and kinetic behavior was observed as outlined above.\n(§1) In vitro kinetic assays. […] Initial rates were then used to determine Michaelis-Menten parameters. To assess thermal stability, enzyme preparations were preincubated at 37° C. for various lengths of time, prior to measurement of residual activities (Table 1 and FIG. 23)."}, "[3]": {"experiment": "Circular dichroism melting temperature of CocE proteins alone", "assay_type": "physicochemical", "conditions": "for melting temperature: circular dichroism, enzyme alone", "procedure": "Further characterization of the stability of wild type (WT) CocE and thermostable mutants was performed through circular dichroism, which detects small changes in protein conformation and structure. Analysis by repeated CD measurements at increasing temperatures allows analysis of the thermodynamics and melting temperature (TM) of the protein, so long as the melting is reversible (i.e. the protein resumes it's original conformation upon cooling). […] However CD is still of value in determining the temperature to unfolding."}, "[4]": {"test_system": "cocaine-induced lethality", "experiment": "In vivo potency of protection against cocaine-induced lethality", "set-up": "species or system NIH-Swiss mice", "conditions": "for protection against cocaine-induced lethality: i.v. pretreatment 1 min prior to i.p. cocaine"}, "[5]": {"experiment": "Michaelis-Menten kinetics of cocaine hydrolysis (absorbance at 240 nm)", "assay_type": "biochemical", "conditions": "cocaine", "protocol": "The initial rates (of decay) were determined by following the change in the intrinsic absorbance of cocaine at 240 nm (6700 M^1 cm^1)(Xie et al., 1999) using a SpectraMax Plus 384 UV plate reader (Molecular Devices, Sunnyvale, Calif.) using SOFTmax Pro software (Version 3.1.2). The reaction was initiated by adding 100 μL of a 2× enzyme solution (100 mM phosphate buffer, pH 7.4 and 300 mM NaCl) to 100 μL of a 2× cocaine solution (50 μg/mL enzyme, 100 mM Phosphate Buffer, pH 7.4 and 300 mM NaCl). All assays were performed with 100 μM DTT unless indicated otherwise. Final cocaine concentrations were as follows: 125, 62.5, 31.25, 15.63, 7.81, 3.91, 1.95, and 0.977 μM. Vmax and Km values were calculated using Prism (GraphPad Software, San Diego). For stability measurements, wild type and mutant enzymes were diluted to 2× concentration and incubated at 37° C. for the times indicated. At the end of each time point, an aliquot was removed and kinetic behavior was observed as outlined above.\nas §1\nDetermination of Catalytic Efficiency. To determine the catalytic activity a spectrophometric assay was performed. Samples of L169K/G173Q CocE were added to a 96-well UV permeable plate containing increasing cocaine concentrations (0.5, 2.5, 5, 12.5, 25, 50, 100, and 150 μM) to give a final concentration of 10 ng/ml CocE in a final volume of 200 μl. The change in absorbance at 240 nm was measured over 20 minutes, with readings every 10 seconds, by a SpectraMax Plus 384 UV plate reader (Molecular Devices, Sunnyvale, Calif.) using SOFTmax Pro software (Version 3.1.2). The change in absorbance was converted to the change in concentration and furthermore the rate of decay per mole enzyme is determined (Kcat). Kcat and Km of the enzyme are determined using Prism (GraphPad software, San Diego)."}}, "data": [{"molecule": "T172R: CocE mutant (protein, listed as Rhodococcus sp.) MVDGNYSVASNVMVPMRDGVRLAVDLYRPDADGPVPVLLVRNPYDKFDVFAWSTQSTNWLEFVRDGYAVVIQDTRGLFASEGEFVPHVDDEADAEDTLSWILEQAWCDGNVGMFGVSYLGVTQWQAAVSGVGGLKAIAPSMASADLYRAPWYGPGGALSVEALLGWSALIGRGLITSRSDARPEDAADFVQLAAILNDVAGAASVTPLAEQPLLGRLIPWVIDQVVDHPDNDESWQSISLFERLGGLATPALITAGWYDGFVGESLRTFVAVKDNADARLVVGPWSHSNLTGRNADRKFGIAATYPIQEATTMHKAFFDRHLRGETDALAGVPKVRLFVMGIDEWRDETDWPLPDTAYTPFYLGGSGAANTSTGGGTLSTSISGTESADTYLYDPADPVPSLGGTLLFHNGDNGPADQRPIHDRDDVLCYSTEVLTDPVEVTGTVSARLFVSSSAVDTDFTAKLVDVFPDGRAIALCDGIVRMRYRETLVNPTLIEAGEIYEVAIDMLATSNVFLPGHRIMVQVSSSNFPKYDRNSNTGGVIAREQLEEMCTAVNRIHRGPEHPSHIVLPIIKR", "values": [{"measurement": "LT50, pretreatment time to 50% lethality", "setting": "[1]", "value": "~1.8", "unit": "h"}, {"measurement": "Stability @ 37 (t1/2)", "setting": "[2]", "value": "~0.767", "unit": "h"}, {"measurement": "half-life / τinact of activity at 37° C.", "setting": "[2]", "value": 0.767, "unit": "h"}, {"measurement": "t1/2", "setting": "[2]", "value": 0.78, "unit": "h"}, {"measurement": "melting temperature higher than the WT", "setting": "[3]", "value": "2-3 degrees"}, {"measurement": "melting temperature", "setting": "[3]", "value": "~42", "unit": "°C"}, {"measurement": "protection against cocaine-induced lethality", "setting": "[4]", "value": "protected"}, {"measurement": "Kcat(mol · s^−1 · mol^−1)", "setting": "[5]", "value": 2502, "unit": "mol · s^−1 · mol^−1"}]}, {"molecule": "L169K: CocE mutant (protein, listed as Rhodococcus sp.) MVDGNYSVASNVMVPMRDGVRLAVDLYRPDADGPVPVLLVRNPYDKFDVFAWSTQSTNWLEFVRDGYAVVIQDTRGLFASEGEFVPHVDDEADAEDTLSWILEQAWCDGNVGMFGVSYLGVTQWQAAVSGVGGLKAIAPSMASADLYRAPWYGPGGALSVEALLGWSAKIGTGLITSRSDARPEDAADFVQLAAILNDVAGAASVTPLAEQPLLGRLIPWVIDQVVDHPDNDESWQSISLFERLGGLATPALITAGWYDGFVGESLRTFVAVKDNADARLVVGPWSHSNLTGRNADRKFGIAATYPIQEATTMHKAFFDRHLRGETDALAGVPKVRLFVMGIDEWRDETDWPLPDTAYTPFYLGGSGAANTSTGGGTLSTSISGTESADTYLYDPADPVPSLGGTLLFHNGDNGPADQRPIHDRDDVLCYSTEVLTDPVEVTGTVSARLFVSSSAVDTDFTAKLVDVFPDGRAIALCDGIVRMRYRETLVNPTLIEAGEIYEVAIDMLATSNVFLPGHRIMVQVSSSNFPKYDRNSNTGGVIAREQLEEMCTAVNRIHRGPEHPSHIVLPIIKR", "values": [{"measurement": "LT50, pretreatment time to 50% lethality", "setting": "[1]", "value": "~3.3", "unit": "h"}, {"measurement": "Stability @ 37 (t1/2)", "setting": "[2]", "value": "~4.57", "unit": "h"}, {"measurement": "half-life / τinact of activity at 37° C.", "setting": "[2]", "value": 4.57, "unit": "h"}, {"measurement": "t1/2", "setting": "[2]", "value": 4.57, "unit": "h"}, {"measurement": "plateau of catalytic activity, percent of maximal", "setting": "[2]; 37° C., after greater than 8 hr / t=10 hours", "value": "approximately 35%"}, {"measurement": "melting temperature", "setting": "[3]", "value": "~65", "unit": "°C"}, {"measurement": "rightward shift in the cocaine dose-response curve", "setting": "[4]; enzyme 1 mg (30 mg/kg) i.v.", "value": "6-7 fold"}, {"measurement": "protection against cocaine-induced lethality", "setting": "[4]", "value": "protected"}, {"measurement": "Kcat(mol · s^−1 · mol^−1)", "setting": "[5]", "value": 3104, "unit": "mol · s^−1 · mol^−1"}, {"measurement": "increase in Km", "setting": "[5]", "value": "~5", "unit": "fold"}]}]}
